Measured values: ChEMBL document CHEMBL3758119, “Functionalized imidazolium and benzimidazolium salts as paraoxonase 1 inhibitors: Synthesis, characterization and molecular docking studies” (Bioorg Med Chem, 2016)

Substrate: CCCCn1cc[n+](Cc2cc(=O)oc3cc(C)cc(C)c23)c1
Conditions: Homo sapiens
Description: Activity of human serum PON1 using paraoxon as substrate by Lineweaver-Burk plot analysis

B1: Serum paraoxonase/arylesterase 1 (Homo sapiens), P27169 (protein)
chain: MAKLIALTLLGMGLALFRNHQSSYQTRLNALREVQPVELPNCNLVKGIETGSEDLEILPNGLAFISSGLKYPGIKSFNPNSPGKILLMDLNEEDPTVLELGITGSKFDVSSFNPHGISTFTDEDNAMYLLVVNHPDAKSTVELFKFQEEEKSLLHLKTIRHKLLPNLNDIVAVGPEHFYGTNDHYFLDPYLQSWEMYLGLAWSYVVYYSPSEVRVVAEGFDFANGINISPDGKYVYIAELLAHKIHVYEKHANWTLTPLKSLDFNTLVDNISVDPETGDLWVGCHPNGMKIFFYDSENPPASEVLRIQNILTEEPKVTQVYAENGTVLQGSTVASVYKGKLLIGTVFHKALYCEL
With B1 the Km was 40.6 µM.
